Measurements published in patent US20260102487A1 (Amgen, published 2026).

T1: human IL-2Rβγ receptor on primary human T-cells and NK-cells (PBMCs) (human, UniProt P14784 27-551; P31785 23-369)
T1 construct: Endogenous receptor on primary cells; also called dimeric IL-2Rβγ receptor complex
T1 sequence 1: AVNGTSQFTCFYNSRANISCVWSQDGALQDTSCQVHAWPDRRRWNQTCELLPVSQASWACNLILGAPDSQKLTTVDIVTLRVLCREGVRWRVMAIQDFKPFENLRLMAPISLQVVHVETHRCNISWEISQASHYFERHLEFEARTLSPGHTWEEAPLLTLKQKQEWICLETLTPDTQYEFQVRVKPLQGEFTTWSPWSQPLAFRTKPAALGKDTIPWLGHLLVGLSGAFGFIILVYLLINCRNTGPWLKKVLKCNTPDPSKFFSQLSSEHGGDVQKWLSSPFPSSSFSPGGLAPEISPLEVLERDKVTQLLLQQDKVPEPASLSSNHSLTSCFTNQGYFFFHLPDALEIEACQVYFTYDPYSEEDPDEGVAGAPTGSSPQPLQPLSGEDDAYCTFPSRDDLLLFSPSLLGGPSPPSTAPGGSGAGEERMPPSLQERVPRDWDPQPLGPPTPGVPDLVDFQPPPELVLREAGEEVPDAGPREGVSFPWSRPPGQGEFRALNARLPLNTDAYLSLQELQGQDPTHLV
T1 sequence 2: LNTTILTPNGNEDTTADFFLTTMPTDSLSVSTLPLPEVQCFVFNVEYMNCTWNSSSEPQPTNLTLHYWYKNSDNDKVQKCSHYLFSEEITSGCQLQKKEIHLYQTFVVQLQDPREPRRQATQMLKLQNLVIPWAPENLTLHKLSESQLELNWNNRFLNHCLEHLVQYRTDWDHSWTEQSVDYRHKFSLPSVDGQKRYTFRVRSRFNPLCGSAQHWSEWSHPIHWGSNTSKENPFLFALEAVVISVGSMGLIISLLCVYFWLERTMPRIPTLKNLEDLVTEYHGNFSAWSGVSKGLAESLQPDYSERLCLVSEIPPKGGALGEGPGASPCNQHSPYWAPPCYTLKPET

T2: IL2RB, Human
T2 construct: Same protein as m17, but here as recombinant protein in solution, not on CHO cells; also called human IL-2RB (AcroBiosystems); IL-2Rβ
T2 receptor chain: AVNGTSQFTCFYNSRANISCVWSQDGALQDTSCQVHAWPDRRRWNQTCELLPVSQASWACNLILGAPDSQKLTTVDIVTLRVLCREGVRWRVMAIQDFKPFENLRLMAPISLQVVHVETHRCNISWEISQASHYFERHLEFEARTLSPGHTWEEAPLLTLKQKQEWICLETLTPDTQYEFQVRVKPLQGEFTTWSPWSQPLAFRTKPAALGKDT

T3: IL2RB, Cyno (Macaca fascicularis, UniProt Q38J85)
T3 construct: Same protein as m18, but here as recombinant protein in solution, not on CHO cells; also called cynomolgus IL-2RB (Sino Biological)
T3 sequence (receptor chain, looked up): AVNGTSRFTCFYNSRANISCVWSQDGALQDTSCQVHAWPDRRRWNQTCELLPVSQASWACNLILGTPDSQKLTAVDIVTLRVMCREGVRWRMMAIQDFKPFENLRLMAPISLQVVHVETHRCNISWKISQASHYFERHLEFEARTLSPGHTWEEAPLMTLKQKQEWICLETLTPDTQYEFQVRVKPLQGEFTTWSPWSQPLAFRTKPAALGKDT


Columns and labels:
[1] = biological target: T1, human IL-2Rβγ receptor on primary human …; assay: flow cytometry cell binding on human CD4+ T-cells (PBMC), gMFI as fold over secondary antibody only
Experimental: (§1) All washes and dilutions of cells, antibodies, and reagents were performed using flow buffer (1X PBS, 1% BSA, 0.1% NaN3, pH 7.4). Staining was performed in a round-bottom 96-well plate (Corning) seeded at 100,000 cells/well, and all incubations were performed at 4° C. or on ice. […] The cells were washed twice with 200 μL flow buffer. The cells were then incubated for 30 minutes with detection antibody (Goat F(ab′)2 Anti-Human IgG-PE, Southern Biotech) at 0.625 μg/mL in flow buffer. Following 2 more washes, the cells were resuspended in a final volume of 150 μL of flow buffer. The cells were analyzed on a BD FACSCelesta or a Guava easyCyte 8-HT flow cytometer. At least 3000 events were collected, and PE geometric mean fluorescence intensity was plotted as a fold over background (cells incubated with secondary detection antibody only). In some secondary screens involving human or cynomolgus PBMCs, an additional CD4 antibody (BioLegend) and/or CD8 antibody (BioLegend) was included to further characterize cell binding.

[2] = biological target: T4, cynomolgus IL-2Rβγ receptor on cynomolgus T-cells (PBMCs) (cynomolgus); assay: flow cytometry cell binding on cynomolgus CD8+ T-cells (PBMC), gMFI as fold over secondary antibody only
T4 construct: whole, on cells; Endogenous receptor on primary cynomolgus cells
Experimental: as §1

IL2RB, Human = biological target: T2, IL2RB, Human; assay: biolayer interferometry (Octet Qk384), antibody captured on anti-human Fc (AHC) sensors, antigen 7.8-500 nM in solution, 1:1 fit, KD = kd/ka
Experimental: (§2) All kinetics measurement experiments were performed on a ForteBio Octet Qk384 instrument using anti-human Fc capture (AHC, 18-5005) sensors. The bispecific heavy chain-only antibodies and antigens were diluted to final concentrations in Kinetics buffer (0.02% Tween20, 0.1% BSA, 0.05% sodium azide, 1X PBS). Kinetics measurements were against the following antigens: human IL-2RB (AcroBiosystems), human TL-2RG (AcroBiosystems), cynomolgus IL-2RB (Sino Biological), cynomolgus IL-2RG (expressed and purified in house using ExpiCHO expression system followed by Ni-NTA his-tag purification). The antibodies were loaded on the AHC sensors at 5 μg/mL for maximum loading. Following a short baseline in Kinetics buffer, the sensors were exposed to a series of analyte concentrations (7.8 nM to 500 nM) for association step and background subtraction was used to correct for sensor drifting. Dissociation was monitored in Kinetics buffer. The capture surfaces were regenerated for 60s. All experiments were performed with shaking at 1000 rpm. ForteBio's data analysis software was used to fit the data to a 1:1 binding model to extract an association rate and dissociation rate. The KD was calculated using the ratio kd/ka.

IL2RB, Cyno = biological target: T3, IL2RB, Cyno; assay: as above
Experimental: as §2

| Binder | EC50 (read off the curve) [1] [µM] | EC50 (read off the curve) [2] [µM] | Kd (IL2RB, Human) [µM] | Kd (IL2RB, Cyno) [µM] | binding result [1] |
| --- | --- | --- | --- | --- | --- |
| BsAb-2 (IL2RB_F09G**IL2RG_F16B) (bispecific antibody, human IgG4, V domains shown, Heavy chain-only bispecific on silenced, stabilised human IgG4 Fc, knobs-into-holes, no light chains; not shown: C-terminal His-tag on the knob chain) V domain 1: QVQLQESGPGLVKSSETLSLTCTVSGGSISSSDWWSWVRQPPGKGLEWIGEIDHSGSTNYNPSLMSRVTISVDKSKNQFSLKLSSVTAADTAVYFCARGSWELTDAFDIRGQGTLVTVSS V domain 2: QVQLVESGGGLVKPGGSLRLSCAASGFTFSDYYMSWIRQAPGKGLEWVSYISSSGSTIYYADSVKGRFTISRDNAKNSLYLQMNSLRAEDTAVYYCARGDAVSITGDYRGQGTLVTVSS | ~0.004 | ~0.002 | 0.0934 | 0.0167 |  |
| BsAb-4 (IL2RB_F09G**IL2RG_F18A) (bispecific antibody, human IgG4, V domains shown, Heavy chain-only bispecific on silenced, stabilised human IgG4 Fc, knobs-into-holes, no light chains; not shown: C-terminal His-tag on the knob chain) V domain 1: QVQLQESGPGLVKSSETLSLTCTVSGGSISSSDWWSWVRQPPGKGLEWIGEIDHSGSTNYNPSLMSRVTISVDKSKNQFSLKLSSVTAADTAVYFCARGSWELTDAFDIRGQGTLVTVSS V domain 2: QVQLVESGGDLVKPGGSLRLSCAASGFTFSDYYMSWLRQAPGKELEWVSHISSSGTTTYYADSVEGRFTITRDNAKNSLYLQMNSLRAEDTAVYYCARGAAVAPGFDSRGQGTLVTVSS | ~0.004 | ~0.01 | 0.0824 | 0.0173 |  |
| BsAb-3 (IL2RB_F09G**IL2RG_F16C) (bispecific antibody, human IgG4, V domains shown, Heavy chain-only bispecific on silenced, stabilised human IgG4 Fc, knobs-into-holes, no light chains; not shown: C-terminal His-tag on the knob chain) V domain 1: QVQLQESGPGLVKSSETLSLTCTVSGGSISSSDWWSWVRQPPGKGLEWIGEIDHSGSTNYNPSLMSRVTISVDKSKNQFSLKLSSVTAADTAVYFCARGSWELTDAFDIRGQGTLVTVSS V domain 2: QVQLVESGGGLVKPGGSLRLSCAASGFTFNDYYMSWIRQAPGKGLEWVSHISSSGSTIYYADSVKGRFTVSRDNANNSLYLQMHSLRAEDTAVYYCARGDAVSITGDYRGQGTLVTVSS | ~0.007 | ~0.01 | 0.0967 | 0.016 |  |

The remaining binders from weak to strong by Kd (IL2RB, Human), led by results:

| EC50 (read off the curve) [1] [µM] | EC50 (read off the curve) [2] [µM] | Kd (IL2RB, Human) [µM] | Kd (IL2RB, Cyno) [µM] | binding result [1] | Binder |
| --- | --- | --- | --- | --- | --- |
|  | ~0.004 | 0.182 | 0.0165 | binds | BsAb-5 (IL2RB_F09K**IL2RG_F16B) (bispecific antibody, human IgG4, V domains shown, Heavy chain-only bispecific on silenced, stabilised human IgG4 Fc, knobs-into-holes, no light chains; not shown: C-terminal His-tag on the knob chain) V domain 1: QVQLQESSPGLVKPSETLSLTCTVSGGSISSSNWWSWVRQPPGKGLEWIGEISHSGSTNYNPSLKSRVTISVDKSKNQFSLRLSSVTAADTAVYFCGRGSWELTDAFDIRGQGTLVTVSS V domain 2: QVQLVESGGGLVKPGGSLRLSCAASGFTFSDYYMSWIRQAPGKGLEWVSYISSSGSTIYYADSVKGRFTISRDNAKNSLYLQMNSLRAEDTAVYYCARGDAVSITGDYRGQGTLVTVSS |
| ~0.007 | ~0.02 | 0.0538 | 0.0552 |  | BsAb-6 (IL2RB_F18E**IL2RG_F16A) (bispecific antibody, human IgG4, V domains shown, Heavy chain-only bispecific on silenced, stabilised human IgG4 Fc, knobs-into-holes, no light chains; not shown: C-terminal His-tag on the knob chain) V domain 1: QVQLVESGGGVVQPGRSLRLSCAASGFTFSSYGMHWVRQAPGKEREWVAVISYDGSNKYYTDSVKGRFTISRDNSKNTLYLEMNSLRAEDTAVYYCARDLDYDVLTGDPVGGFDIWGQGTLVTVSS V domain 2: QVQLVESGGGLVKPGGSLRLSCAASGFTFSDYYMSWIRQAPGKGLEWVSSISSSGDTIYYADSVQGRFTLSRDNAENSLFLQMNSLRAEDTAVYYCARGDAVSITGDYRGQGTLVTVSS |
| ~0.007 | ~0.02 | 0.0185 | 0.0107 |  | BsAb-1 (IL2RB_F09C**IL2RG_F16A) (bispecific antibody, human IgG4, V domains shown, Heavy chain-only bispecific on silenced, stabilised human IgG4 Fc, knobs-into-holes, no light chains; not shown: C-terminal His-tag on the knob chain) V domain 1: QVQLQESGPGLVKPSGTLSLTCAVSGGSISSSDWWSWVRQPPGKGLEWIGEIDHSGSTNYNPSLMSRVTISVDKSKNQFSLKLSSVTAADTAVYFCGRGSWELSDAFDIRGQGTLVTVSS V domain 2: QVQLVESGGGLVKPGGSLRLSCAASGFTFSDYYMSWIRQAPGKGLEWVSSISSSGDTIYYADSVQGRFTLSRDNAENSLFLQMNSLRAEDTAVYYCARGDAVSITGDYRGQGTLVTVSS |
